The results in this text go back to patent publication US10125358B2, “Methods and compounds for increasing threonyl-tRNA synthetase activity” (UNIVERSITY OF VERMONT AND STATE AGRICULTURAL COLLEGE, priority 2012, dated 2018).

Holding throughout (type): biochemical
Design in all cases: His6 (N); made in house; host or cells: E. coli Rosetta 2 (DE3)pLysS, plasmid pET28a hctThrRS

Test [1] has as its target T1, TARS (Homo sapiens, UniProt P26639).
T1 sequence (P26639 1-723): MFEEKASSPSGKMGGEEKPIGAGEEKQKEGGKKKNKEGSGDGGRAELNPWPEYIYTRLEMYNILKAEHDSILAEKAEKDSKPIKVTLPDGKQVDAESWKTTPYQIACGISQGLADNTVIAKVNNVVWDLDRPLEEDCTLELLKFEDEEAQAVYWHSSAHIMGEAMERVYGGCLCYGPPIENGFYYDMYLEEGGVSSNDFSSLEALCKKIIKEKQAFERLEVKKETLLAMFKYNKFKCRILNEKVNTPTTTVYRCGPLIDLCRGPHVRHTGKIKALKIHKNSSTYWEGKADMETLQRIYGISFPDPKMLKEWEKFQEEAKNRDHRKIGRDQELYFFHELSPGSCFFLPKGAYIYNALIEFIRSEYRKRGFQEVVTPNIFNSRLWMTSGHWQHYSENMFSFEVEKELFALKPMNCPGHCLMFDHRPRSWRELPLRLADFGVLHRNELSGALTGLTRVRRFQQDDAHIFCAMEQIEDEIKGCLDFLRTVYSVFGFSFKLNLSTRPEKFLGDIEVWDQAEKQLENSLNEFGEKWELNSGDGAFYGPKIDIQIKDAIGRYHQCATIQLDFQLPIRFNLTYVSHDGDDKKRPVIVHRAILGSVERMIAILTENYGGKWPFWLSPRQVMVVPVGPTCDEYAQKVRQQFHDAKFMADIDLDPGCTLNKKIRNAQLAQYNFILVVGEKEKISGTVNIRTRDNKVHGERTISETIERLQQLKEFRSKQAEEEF
Briefly: GTPase (GTP hydrolysis) assay.

The target of test [2] is T1, TARS. Briefly: Ap4A formation assay (TLC, [α-32P]-ATP). Conditions: 5 μM enzyme, 2 mM threonine, 2 mM ATP.
The target of test [3] is T1, TARS. Briefly: Ap4G formation assay (TLC, [α-32P]-GTP). Conditions: 2 mM ATP, 2 mM threonine, 2 mM GTP.
[4] abbreviates: substrate added to GTPase reaction.

Take `Nc1ncnc2c1ncn2[C@@H]1O[C@H](COP(=O)(O)OP(=O)(O)OP(=O)(O)O)[C@@H](O)[C@H]1O` [ATP]: in test [1] (setting [4]), the “decrease in TARS GTPase activity” value amounted to 77%. For the molecule `C[C@@H](O)[C@H](N)C(=O)O` [threonine], the “increase in TARS GTPase activity” value in test [1] (setting [4]) is 26%.

B1: E. coli ThrRS: bacterial (E. coli) threonyl-tRNA synthetase (protein, UniProt P0A8M3 1-642, looked up)
Threonine--tRNA ligase: MPVITLPDGSQRHYDHAVSPMDVALDIGPGLAKACIAGRVNGELVDACDLIENDAQLSIITAKDEEGLEIIRHSCAHLLGHAIKQLWPHTKMAIGPVIDNGFYYDVDLDRTLTQEDVEALEKRMHELAEKNYDVIKKKVSWHEARETFANRGESYKVSILDENIAHDDKPGLYFHEEYVDMCRGPHVPNMRFCHHFKLMKTAGAYWRGDSNNKMLQRIYGTAWADKKALNAYLQRLEEAAKRDHRKIGKQLDLYHMQEEAPGMVFWHNDGWTIFRELEVFVRSKLKEYQYQEVKGPFMMDRVLWEKTGHWDNYKDAMFTTSSENREYCIKPMNCPGHVQIFNQGLKSYRDLPLRMAEFGSCHRNEPSGSLHGLMRVRGFTQDDAHIFCTEEQIRDEVNGCIRLVYDMYSTFGFEKIVVKLSTRPEKRIGSDEMWDRAEADLAVALEENNIPFEYQLGEGAFYGPKIEFTLYDCLDRAWQCGTVQLDFSLPSRLSASYVGEDNERKVPVMIHRAILGSMERFIGILTEEFAGFFPTWLAPVQVVIMNITDSQSEYVNELTQKLSNAGIRVKADLRNEKIGFKIREHTLRRVPYMLVCGDKEVESGKVAVRTRRGKDLGSMDVNEVIEKLQQEIRSRSLKQLEE
With B1, the GTP hydrolysis rate entry in test [1] (2 mM GTP) is “not”. For the same molecule, the Ap4A production rate in test [2] stood at 0.5612 Ap4A/active site/min. In test [3], this molecule registered an Ap4G formation rate of 0.5612 Ap4G/active site/min.
